Experimental data: patent US20240309073A1 (SERUM INSTITUTE OF INDIA PRIVATE, published 2024)

Key:
Assay in all cases: cell-based or functional assay
[1] = molecular target: T1, Dengue virus serotype DV2 (Dengue virus serotype 2 (DV2), UniProt P29990 281-775)
[2] = molecular target: T2, Dengue virus serotype DV4 (Dengue virus serotype 4 (DV4), UniProt P09866 280-774)
[3] = molecular target: T3, Dengue virus serotype DV3 (Dengue virus serotype 3 (DV3), UniProt Q6YMS4 281-773)
[4] = molecular target: T1, Dengue virus serotype DV2; remark: listed apart in the source
[5] = molecular target: T1, Dengue virus serotype DV2; remark: listed apart in the source
[6] = molecular target: T2, Dengue virus serotype DV4; remark: listed apart in the source
[7] = molecular target: T3, Dengue virus serotype DV3; remark: listed apart in the source

T2 sequence (P09866 280-774 limits assumed): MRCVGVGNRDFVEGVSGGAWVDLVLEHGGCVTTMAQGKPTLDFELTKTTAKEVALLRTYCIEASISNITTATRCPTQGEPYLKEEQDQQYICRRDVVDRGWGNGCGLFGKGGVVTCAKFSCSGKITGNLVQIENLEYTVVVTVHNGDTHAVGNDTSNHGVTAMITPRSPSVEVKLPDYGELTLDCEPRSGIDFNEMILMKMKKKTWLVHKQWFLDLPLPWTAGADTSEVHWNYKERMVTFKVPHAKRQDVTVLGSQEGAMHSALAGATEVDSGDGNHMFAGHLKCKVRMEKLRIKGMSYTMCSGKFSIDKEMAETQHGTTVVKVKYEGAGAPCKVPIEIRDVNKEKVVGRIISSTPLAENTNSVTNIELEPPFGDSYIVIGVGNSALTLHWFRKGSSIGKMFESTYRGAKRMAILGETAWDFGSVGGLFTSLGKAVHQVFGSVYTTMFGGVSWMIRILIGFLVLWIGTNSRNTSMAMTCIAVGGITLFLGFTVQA

B1: Dengue (VIS513) Monoclonal antibody (antibody, human IgG1, kappa, V domains shown)
VH: QVQLVQSGAEVKKPGASVKVSCKAGFNIKDVYMSWVRQAPEQGLEWMGRIDPENGDTKYDPKLQGRVTMTADTSTNTAYMELRSLRSDDTAVYYCARGWEGFAYWGQGTLVTVSS
VL: DIVMTQSPASLAVSLGERATISCRASENVDKYGNSFMHWYQQKPGQPPKLLIYRASELQWGVPDRFSGSGSGTDFTLTISSLQAEDVAVYYCQRSNEVPWTFGQGTKLEIKR
[1]
  EC50 (ng/ml) by PRNT assay; Batch 1, stored at 25° C., 0 day: 5.9 ng/mL
  EC50 (ng/ml) by PRNT assay; Batch 1, stored at 25° C., 30 days: 5.6 ng/mL
  EC50 (ng/ml) by PRNT assay; Batch 2, stored at 25° C., 0 day: 3.26 ng/mL
  EC50 (ng/ml) by PRNT assay; Batch 2, stored at 25° C., 30 days: 5.51 ng/mL
[2]
  EC50 (ng/ml) by PRNT assay; Batch 1, stored at 25° C., 0 day: 30.3 ng/mL
  EC50 (ng/ml) by PRNT assay; Batch 1, stored at 25° C., 30 days: 35.3 ng/mL
  EC50 (ng/ml) by PRNT assay; Batch 2, stored at 25° C., 0 day: 22.5 ng/mL
  EC50 (ng/ml) by PRNT assay; Batch 2, stored at 25° C., 30 days: 30.7 ng/mL
[3]
  EC50 (ng/ml) by PRNT assay; Batch 1, stored at 25° C., 0 day: 14.4 ng/mL
  EC50 (ng/ml) by PRNT assay; Batch 1, stored at 25° C., 30 days: 9.63 ng/mL
  EC50 (ng/ml) by PRNT assay; Batch 2, stored at 25° C., 0 day: 13.2 ng/mL
  EC50 (ng/ml) by PRNT assay; Batch 2, stored at 25° C., 30 days: 9.25 ng/mL
[4]
  EC50 (ng/ml) by PRNT assay; Batch 1, 40° C. study, Control, 0 day: 6.66 ng/mL
  EC50 (ng/ml) by PRNT assay; Batch 1, 40° C. study, Control, 7 days: 6.37 ng/mL
  EC50 (ng/ml) by PRNT assay; Batch 1, 40° C. study, Control, 14 days: 6.18 ng/mL
  EC50 (ng/ml) by PRNT assay; Batch 1, stored at 40° C., Test, 7 days: 26.9 ng/mL
  EC50 (ng/ml) by PRNT assay; Batch 1, stored at 40° C., Test, 14 days: 36.1 ng/mL
[5]
  EC50 (ng/ml) by PRNT assay; Batch 1, stored at 2-8° C., 0 day: 5.9 ng/mL
  EC50 (ng/ml) by PRNT assay; Batch 1, stored at 2-8° C., 3 months: 8.03 ng/mL
  EC50 (ng/ml) by PRNT assay; Batch 1, stored at 2-8° C., 6 months: 3.58 ng/mL
  EC50 (ng/ml) by PRNT assay; Batch 1, stored at 2-8° C., 9 months: 3.31 ng/mL
  EC50 (ng/ml) by PRNT assay; Batch 2, stored at 2-8° C., 0 day: 3.26 ng/mL
  EC50 (ng/ml) by PRNT assay; Batch 2, stored at 2-8° C., 3 months: 5.69 ng/mL
  EC50 (ng/ml) by PRNT assay; Batch 2, stored at 2-8° C., 6 months: 4.15 ng/mL
  EC50 (ng/ml) by PRNT assay; Batch 2, stored at 2-8° C., 9 months: 2.87 ng/mL
[6]
  EC50 (ng/ml) by PRNT assay; Batch 1, stored at 2-8° C., 0 day: 30.3 ng/mL
  EC50 (ng/ml) by PRNT assay; Batch 1, stored at 2-8° C., 3 months: 50.8 ng/mL
  EC50 (ng/ml) by PRNT assay; Batch 1, stored at 2-8° C., 6 months: 24 ng/mL
  EC50 (ng/ml) by PRNT assay; Batch 1, stored at 2-8° C., 9 months: 23.4 ng/mL
  EC50 (ng/ml) by PRNT assay; Batch 2, stored at 2-8° C., 0 day: 22.5 ng/mL
  EC50 (ng/ml) by PRNT assay; Batch 2, stored at 2-8° C., 3 months: 22.4 ng/mL
  EC50 (ng/ml) by PRNT assay; Batch 2, stored at 2-8° C., 6 months: 16.6 ng/mL
  EC50 (ng/ml) by PRNT assay; Batch 2, stored at 2-8° C., 9 months: 19.6 ng/mL
[7]
  EC50 (ng/ml) by PRNT assay; Batch 1, stored at 2-8° C., 0 day: 14.4 ng/mL
  EC50 (ng/ml) by PRNT assay; Batch 1, stored at 2-8° C., 3 months: 14.7 ng/mL
  EC50 (ng/ml) by PRNT assay; Batch 1, stored at 2-8° C., 6 months: 5.58 ng/mL
  EC50 (ng/ml) by PRNT assay; Batch 1, stored at 2-8° C., 9 months: 4.57 ng/mL
  EC50 (ng/ml) by PRNT assay; Batch 2, stored at 2-8° C., 0 day: 13.2 ng/mL
  EC50 (ng/ml) by PRNT assay; Batch 2, stored at 2-8° C., 6 months: 6.53 ng/mL
  EC50 (ng/ml) by PRNT assay; Batch 2, stored at 2-8° C., 9 months: 7.05 ng/mL
